Values quoted from earlier work as cited in article PMC6601554.

Molecular target: Mouse neonatal Fc receptor (FcRn) (UniProt Q61559)
Test: not stated in this article

UniProt Q61559, sequence (Q61559 whole entry): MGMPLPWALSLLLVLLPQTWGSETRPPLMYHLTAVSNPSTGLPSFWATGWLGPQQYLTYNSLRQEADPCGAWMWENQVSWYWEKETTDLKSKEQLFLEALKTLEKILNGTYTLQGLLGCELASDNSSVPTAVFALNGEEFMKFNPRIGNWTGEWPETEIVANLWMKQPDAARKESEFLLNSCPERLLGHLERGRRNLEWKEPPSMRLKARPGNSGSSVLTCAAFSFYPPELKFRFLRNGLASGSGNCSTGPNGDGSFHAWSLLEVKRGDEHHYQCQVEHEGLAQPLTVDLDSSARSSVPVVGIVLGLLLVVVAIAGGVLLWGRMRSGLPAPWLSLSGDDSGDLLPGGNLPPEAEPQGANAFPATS

For “MST-HN human IgG1 (Abdeg; mutated humanized anti-hen egg lysozyme HuLys10) M252Y;S254T;T256E;H433K;N434F”, which Kd (pH 6.0) is on record?
Its Kd is 1.2 nM.

What about the Kd (pH 7.2) of the same substance?
Its Kd is 7.4 nM.
